± gives the uncertainty stated by the source.
Assay: self-splicing fitness, log relative to wild type (ln ratio); higher = more splicing; Tetrahymena group I intron in knt gene, E. coli kanamycin selection, DiMSum; sequences stand for … in CUCUCU…GGAGGGAAAAGUUAUCAGGCAUGCACCUGGUAGCUAGUCUUUAAACCAAUAGAUUGCAUCGGUUUAAAAGGCAAGACCGUCAAAUUGCGGGAAAGGGGUCAACAGCCGUUCAGUACCAAGUCUCAGGGGAAACUUUGAGAUGGCCUUGCAAAGGGUAUGGUAAUAAGCUGACGGACAUGGUCCUAACCACGCAGCCAAGUCCUAAGUCAACAGAUCUUCUGUUGAUAUGGAUGCAGUUCACAGACUAAAUGUCGGUCGGGGAAGAUGUAUUCUUCUCAUAAGAUAUAGUCGGACCUCUCCUUAAUGGGAGCUAGCGGAUGAAGUGAUGCAACACUGGAGCCGCUGGGAACUAAUUUGUAUGCGAAAGUAUAUUGAUUAGUUUUGGAGUACUCGUGGUCG
Method in brief: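 Fitness was computed with DiMSum as the error-weighted combination of replicate fold changes, kanamycin versus none, each normalised to wild type. The library randomised all eight intron nucleotides of the P1ex region, with the intron placed in the knt kanamycin-resistance gene on pET-22b(+) in E. coli BL21(DE3). Six replicate transformations were grown overnight at 37°C or 30°C on LB agar with or without 25 μg/mL kanamycin, plus 100 μg/mL carbenicillin, 50 μM IPTG and 0.2% rhamnose. Pooled colonies were amplicon-sequenced on an Illumina HiSeq 2500.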

Sequence | self-splicing fitness (ln) (30 °C) | self-splicing fitness (ln) (37 °C)
GGCUAGCAAUAUUACGCGUC | -2.06 ± 0.24 | 0.0137 ± 0.14
GGCUAGCAAUAUUACGCUAG | -2.5 ± 0.3 | -1.45 ± 0.34
GGCUAGCAAUAUUACGGACG | 0.655 ± 0.093 | 0.211 ± 0.11
GGCUAGCAAUAUUACGGGUC | -2.91 ± 0.28 | -2.26 ± 0.24
GGCUAGCAAUAUUACGGUCU | -2.92 ± 0.44 | -0.649 ± 0.21
GGCUAGCAAUAUUACGGUGC | -1.49 ± 0.19 | -0.767 ± 0.2
GGCUAGCAAUAUUACGUCGC | -1.5 ± 0.28 | -0.438 ± 0.22
GGCUAGCAAUAUUACGUGCG | -0.139 ± 0.099 | 0.371 ± 0.15
GGCUAGCAAUAUUACGUUCG | -0.933 ± 0.097 | -0.427 ± 0.12
GGGAAGCAAUAUUACGAAAG | – | -2.48 ± 0.41
GGGAAGCAAUAUUACGAACU | -2.22 ± 0.26 | 1.13 ± 0.33
GGGAAGCAAUAUUACGAGUC | -2.56 ± 0.17 | -1.36 ± 0.16
GGGAAGCAAUAUUACGAUAU | -0.722 ± 0.15 | -0.709 ± 0.23
GGGAAGCAAUAUUACGAUCC | -2.12 ± 0.22 | -1.11 ± 0.35
GGGAAGCAAUAUUACGAUUC | -0.445 ± 0.14 | -0.851 ± 0.16
GGGAAGCAAUAUUACGCAAC | -3.36 ± 0.17 | -1.03 ± 0.18
GGGAAGCAAUAUUACGCAUA | -2.35 ± 0.18 | -1.25 ± 0.14
GGGAAGCAAUAUUACGCCGA | -1.78 ± 0.17 | -0.238 ± 0.12
GGGAAGCAAUAUUACGCUAC | -2.26 ± 0.3 | -1.84 ± 0.46
GGGAAGCAAUAUUACGCUGU | -2.38 ± 0.14 | -1.45 ± 0.16
GGGAAGCAAUAUUACGGAAA | -1.4 ± 0.32 | -1.41 ± 0.36
GGGAAGCAAUAUUACGGGGU | – | -2.7 ± 0.34
GGGAAGCAAUAUUACGGGUC | -2.67 ± 0.3 | -2.08 ± 0.33
GGGAAGCAAUAUUACGGUGG | -3.18 ± 0.24 | -2 ± 0.24
GGGAAGCAAUAUUACGUCUA | 0.132 ± 0.17 | -0.25 ± 0.18
GGGAAGCAAUAUUACGUCUU | -0.577 ± 0.09 | -0.159 ± 0.13

Sequence | self-splicing fitness (ln) (30 °C) | self-splicing fitness (ln) (37 °C)
GGGAAGCAAUAUUACGUGGC | -2.16 ± 0.36 | -2.73 ± 0.31
GGGCAGCAAUAUUACGAAAU | -1.42 ± 0.25 | -1.24 ± 0.22
GGGCAGCAAUAUUACGAAGC | -1.64 ± 0.077 | -0.939 ± 0.09
GGGCAGCAAUAUUACGAAUA | – | 0.108 ± 0.17
GGGCAGCAAUAUUACGACCG | -0.512 ± 0.14 | 0.369 ± 0.17
GGGCAGCAAUAUUACGACGA | -0.804 ± 0.11 | -0.442 ± 0.12
GGGCAGCAAUAUUACGACGC | 0.36 ± 0.13 | -0.0449 ± 0.18
GGGCAGCAAUAUUACGAGGC | -2.26 ± 0.29 | -2.9 ± 0.37
GGGCAGCAAUAUUACGAUAA | -2.67 ± 0.21 | -1.75 ± 0.18
GGGCAGCAAUAUUACGAUCC | -1.89 ± 0.42 | -0.374 ± 0.37
GGGCAGCAAUAUUACGCAGA | -1.43 ± 0.095 | -0.514 ± 0.1
GGGCAGCAAUAUUACGCAUG | -1.36 ± 0.1 | -0.482 ± 0.12
GGGCAGCAAUAUUACGCCUU | -3.55 ± 0.29 | -2.13 ± 0.22
GGGCAGCAAUAUUACGCGGU | -3.4 ± 0.19 | -1.77 ± 0.27
GGGCAGCAAUAUUACGCUCU | -3.55 ± 0.44 | –
GGGCAGCAAUAUUACGGAAA | -2.77 ± 0.21 | -2.26 ± 0.19
GGGCAGCAAUAUUACGGCUG | -2.27 ± 0.15 | -1.8 ± 0.18
GGGCAGCAAUAUUACGGGCA | -2.14 ± 0.13 | -0.0115 ± 0.09
GGGCAGCAAUAUUACGGGCU | -3.06 ± 0.14 | -2.04 ± 0.18
GGGCAGCAAUAUUACGGUCU | -3.22 ± 0.26 | -1.03 ± 0.24
GGGCAGCAAUAUUACGUCAC | – | -1.18 ± 0.42
GGGCAGCAAUAUUACGUCCC | -2.38 ± 0.46 | –
GGGCAGCAAUAUUACGUGUA | -2.19 ± 0.15 | -0.515 ± 0.12
GGGCAGCAAUAUUACGUUCU | -2.35 ± 0.19 | -1.2 ± 0.14
GGGCAGCAAUAUUACGUUGG | -3.05 ± 0.16 | -1.65 ± 0.15
GGGGAGCAAUAUUACGACCG | -1.02 ± 0.41 | –

Sequence | self-splicing fitness (ln) (30 °C) | self-splicing fitness (ln) (37 °C)
GGGGAGCAAUAUUACGAGGU | -3.44 ± 0.22 | -1.82 ± 0.26
GGGGAGCAAUAUUACGCAGG | – | -2.08 ± 0.46
GGGGAGCAAUAUUACGCAGU | – | -1.35 ± 0.36
GGGGAGCAAUAUUACGCAUU | -3.09 ± 0.27 | -1.93 ± 0.21
GGGGAGCAAUAUUACGCCUU | – | -0.939 ± 0.35
GGGGAGCAAUAUUACGCGGA | -2.24 ± 0.32 | -2.59 ± 0.36
GGGGAGCAAUAUUACGGAAC | – | -2.95 ± 0.26
GGGGAGCAAUAUUACGGGCA | -2.87 ± 0.34 | -1.47 ± 0.26
GGGGAGCAAUAUUACGUAUC | -2.03 ± 0.2 | -2.19 ± 0.37
GGGGAGCAAUAUUACGUCUC | -1.64 ± 0.4 | –
GGGGAGCAAUAUUACGUCUU | -1.91 ± 0.12 | -0.96 ± 0.18
GGGGAGCAAUAUUACGUGGA | -2.04 ± 0.35 | -2.48 ± 0.39
GGGGAGCAAUAUUACGUGUU | -3.92 ± 0.35 | -2.29 ± 0.27
GGGGAGCAAUAUUACGUUCG | -2.01 ± 0.18 | -0.941 ± 0.16
GGGUAGCAAUAUUACGAAGA | -1.72 ± 0.21 | -1.62 ± 0.21
GGGUAGCAAUAUUACGAAUU | -1.04 ± 0.084 | -0.438 ± 0.11
GGGUAGCAAUAUUACGACAG | -2.84 ± 0.2 | -1.9 ± 0.21
GGGUAGCAAUAUUACGACCU | -2.3 ± 0.36 | –
GGGUAGCAAUAUUACGACGG | – | -1.18 ± 0.44
GGGUAGCAAUAUUACGAGCA | -0.991 ± 0.2 | 0.0569 ± 0.17
GGGUAGCAAUAUUACGAUUG | -1.63 ± 0.23 | -2.13 ± 0.25
GGGUAGCAAUAUUACGCAUA | – | -0.676 ± 0.24
GGGUAGCAAUAUUACGCAUG | -1.68 ± 0.18 | -2.73 ± 0.32
GGGUAGCAAUAUUACGCCAG | – | -2.81 ± 0.47
GGGUAGCAAUAUUACGCCAU | -2.4 ± 0.26 | -1.32 ± 0.19
GGGUAGCAAUAUUACGCGGG | -2.2 ± 0.26 | -2.42 ± 0.23

Sequence | self-splicing fitness (ln) (30 °C) | self-splicing fitness (ln) (37 °C)
GGGUAGCAAUAUUACGGCGA | -0.516 ± 0.1 | 0.326 ± 0.12
GGGUAGCAAUAUUACGGCUA | -0.886 ± 0.24 | -1.24 ± 0.22
GGGUAGCAAUAUUACGGGAC | -2.79 ± 0.2 | -0.633 ± 0.13
GGGUAGCAAUAUUACGGUCA | 0.229 ± 0.18 | -0.659 ± 0.18
GGGUAGCAAUAUUACGUAAA | -0.962 ± 0.13 | -0.0364 ± 0.15
GGGUAGCAAUAUUACGUAGA | -1.89 ± 0.17 | -0.619 ± 0.15
GGGUAGCAAUAUUACGUAUG | – | -1.84 ± 0.19
GGGUAGCAAUAUUACGUUCU | -0.416 ± 0.11 | -0.164 ± 0.13
GGUAAGCAAUAUUACGAAAC | -1.48 ± 0.14 | -0.179 ± 0.12
GGUAAGCAAUAUUACGAAGC | -3.07 ± 0.23 | -0.664 ± 0.23
GGUAAGCAAUAUUACGAAGG | -3.74 ± 0.25 | -2.84 ± 0.25
GGUAAGCAAUAUUACGACCU | -1.81 ± 0.18 | -1.93 ± 0.24
GGUAAGCAAUAUUACGACUG | -0.569 ± 0.12 | -0.0619 ± 0.14
GGUAAGCAAUAUUACGAGAA | -2.48 ± 0.42 | -2.67 ± 0.37
GGUAAGCAAUAUUACGAGCG | 0.017 ± 0.17 | 0.512 ± 0.17
GGUAAGCAAUAUUACGAUCA | -0.121 ± 0.1 | -0.203 ± 0.1
GGUAAGCAAUAUUACGAUGA | -1.83 ± 0.26 | -0.16 ± 0.2
GGUAAGCAAUAUUACGCAUU | -1.86 ± 0.14 | -0.797 ± 0.12
GGUAAGCAAUAUUACGCGAC | -2.04 ± 0.16 | -1.19 ± 0.2
GGUAAGCAAUAUUACGCGUC | -1.95 ± 0.2 | 0.649 ± 0.18
GGUAAGCAAUAUUACGCUAG | -4.34 ± 0.36 | -2.92 ± 0.29
GGUAAGCAAUAUUACGGCCU | -2.34 ± 0.33 | –
GGUAAGCAAUAUUACGGCUC | -0.214 ± 0.14 | -0.443 ± 0.16
